# Assay results from a protein production outcome set (Wang et al. 2014).
# Assay: label from the status in PepcDB records
row,Sequence,protein production
1,MFKVGPIGSKQYYDKSWEEKGRNMISIFGILVHDGHVKANIQVRLNDDEYVTGLSGIFWERKVTSLTFHTNQGKHGPFCNGTGYSSSYMADYKKEIDVKIRDRREFGGFFGSFDDEFDGLTSIGIYVYPTYDNKPTLNQAWDPLYAFAHNQIPTIADGIPVMHIRYKPKLKDRIFSKLDFKRAMLCLIKVFLD,failed
2,MFKVPKQSYTAEFKAAAVQRVKDGQGVGAVARELSVSEQTLRNWMKAEQAGKLGGAGAKVVTPEQMELSRLRAENKRLQMELEIAKKAAAYFAKDLL,failed
3,MFLDMLSLIRGQKIKLNDALQGQSSFYIQIHYQAAFDLDIASFGLDSQYRLSDERYMTFYNQPETPCQAVRLIENQNKCSRFLVDLAKLPATIQHLVLTAAIDGQNIMSQLQQVTVQILNLQLQPIAELKLDASIFDQERATMLIEIYRKEGIWRLAAIGQGFNAGLAALIQHFGGEVAEEPTAQQTTPVAPQSNIDLKKKLSLQKAEKTGNASIIDLTKKSLVQLEKKKLLGVTARVALVLDASGSMDGQYRRGDVQKVVNRLMPLAIHFDDDGSFECWAFAAETTQLDDVTLSNVNDFINSTQRGWKNWQVGARYNEEIPAIEAVINYFQKFQDQIPTYVLFISDGGVGSRRQMQKILSQAAKLPIFWQFVGIGGRNYGALEKLDEMSGRIVDNCNFFSLDRIDGVSDERLYELLLQEFPDWLIAARQHQIVRN,failed
4,MFLDRERELQFLERRYEMGGPEFIVIYGRRRVGKTALLLEFISRHGGIYLLARETSNLENLKRFSDRLSEYFGDDFLKRNPFQNWDAFLEYLNQKATERLVVVIDEFPYLVKGDRSLPSILQEYWDLKLSNGRIFLIICGSSISMMEKLLGYKSPIYGRRTGQINLKPVDFLHAREFLPGYSLEDFIKAYGILGGSPAHLLEFDDSKTIKENLLEYLRSDSLLYQDAFFVLREELEEPRNYFAIMEAVAAGKTSLGEIMNETGLSRATVAKYLSVLIELDFVKREIPITASRKSRRGRYYIKDNYFAFWFRYIHPNIDFIESERRKELLELIIDDLPNYLGGIFENVAIEFLPLISNKLPFKPLKIGRWWHKNEEIDLVAFNEKEEKAILIEVKWKTLNKIEANKILKDLNRKSKILKMKEWEQYHGIIAKRVKDKEKIKGGLIWDLEDIENLKFSPELEHHHHHH,not failed
5,MFLEIAKVYLQGLGLASITVILVGIIWVFWRAKKNIDKTARERQSVLYDVLLIALMTAPILAFAFVAIILMIKA,failed
6,MFLFMVSRNFSRRDFLKMTAGGVVLASAMPTLSWASLPDEPRVLAMNNLNTGELLETCYFDGNRYVGKELQRLNEFCRDHRRNEVHPMDKRLFDQISQIQKLIGTESEVIVISGYRSPVTNASLRSGSTGVAKKSLHMEGKAIDFRLDGVKLSTVRDAAISLKAGGVGYYPGSNFVHIDTGAVRSW,failed
7,MFLGEDYLLTNRAAVRLFNEVKDLPIVDPHNHLDAKDIVENKPWNDIWEVEGATDHYVWELMRRCGVSEEYITGSRSNKEKWLALAKVFPRFVGNPTYEWIHLDLWRRFNIKKVISEETAEEIWEETKKKLPEMTPQKLLRDMKVEILCTTDDPVSTLEHHRKAKEAVEGVTILPTWRPDRAMNVDKEGWREYVEKMGERYGEDTSTLDGFLNALWKSHEHFKEHGCVASDHALLEPSVYYVDENRARAVHEKAFSGEKLTQDEINDYKAFMMVQFGKMNQETNWVTQLHIGALRDYRDSLFKTLGPDSGGDISTNFLRIAEGLRYFLNEFDGKLKIVLYVLDPTHLPTISTIARAFPNVYVGAPWWFNDSPFGMEMHLKYLASVDLLYNLAGMVTDSRKLLSFGSRTEMFRRVLSNVVGEMVEKGQIPIKEARELVKHVSYDGPKALFFG,not failed
8,MFLHSVNLWNLAFYVFMVFLATLGLWDVFFGFEENKCSMSYMFEYPEYQKIELPKKLAKRYPAYELYLYGEGSYAEEHKILPLTGIPVLFLPGNAGSYKQVRSIGSIALRKAEDIDFKYHFDFFSVNFNEELVALYGGSLQKQTKFVHECIKTILKLYKGQEFAPKSVAIIGHSMGGLVARALLTLKNFKHDLINLLITQATPHVAPVMPLDRFITDFYTTVNNYWILNARHINLTTLSVAGGFRDYQVRSGLTFLPKLSHHTSALSVVSSAVPKTWVSTDHLSIVWCKQLQLTTVRAFFDLIDADTKQITQNSKKKLSVLYHHFIRHPSKHFEENPAIISDLTGTSMWVLVKVSKWTYVAYNESEKIYFTFPLENHRKIYTHVYCQSTMLDTNSWIFACINSTSMCLQGVDLSWKAELLPTIKYLTLRLQDYPSLSHLVVYVPSVRGSKFVVDCEFFKKEKRYIQLPVTHLFSFGLSSRKVVLNTNGLYYNLELLNFGQIYQAFKINVVSKCSAVKEEITSIYRLHIPWSYEDSLTIAQAPSSTEISLKLHIAQPENNTHVALFKMYTSSDCRYEVTVKTSFSQILGQVVRFHGGALPAYVVSNILLAYRGQLYSLFSTGCCLEYATMLDKEAKPYKVDPFVIIIKFLLGYKWFKELWDVLLLPELDAVILTCQSMCFPLISLILFLFGTCTAYWSGLLSSASVRLLSSLWLALKRPSELPKDIKMISPDLPFLTIVLIIVSWTTCGALAILLSYLYYVFKVVHLQASLTTFKNSQPVNPKHSRRSEKKSNHHKDSSIHHLRLSANDAEDSLRMHSTVINLLTWIVLLSMPSLIYWLKNLRYYFKLNPDPCKPLAFILIPTMAILGNTYTVSIKSSKLLKTTSQFPLPLAVGVIAFGSAHLYRLPCFVFIPLLLHALCNFM,failed
9,MFLSVVTVAFRNYEGVVKTWRSLRNLARDPGLSFEWIVVDGGSEDGTREFLRKRHGEFNLRFISEKDRGIYDAMNKGIALAQGRYTLFLNSGDAFHDDAALFVRQLARQKGEAMYIGDALLDFGGGHKIRRKAKPGYYIYHSLPASHQAIFFPTAALKKYPYDLQYHVSSDYALAARLYKAGYPFRRINGLVSEFSMGGVSTSNNLELCQDAKNVQRKILRVPGFWAQLSYLLRLKTTGKTKARYNKVLEHHHHHH,not failed
10,MFLVCGEALFDIFTRADDGGSLNRLGFDAIAGGSPFNVAIGLRRLGVEAAFFAGLSTDYLGRRLRAVLEQETVNAEHLIEFDAPTTLAMVAVGSDGSPTYSFRGDGCADRQLRLEHLPELDERVRGIHVGSFSLVVQPIADTLLALVARESARRLISLDPNVRLNPAPDIQRWRTQIAAFAEHAHLIKVSDEDLHLLYPDSDPQQIAEGWLGKRTQLVIVTRGTQGASVFTRQHGTWSVPAKTVVTADTVGAGDTFQAALLTFLSERQLDTPQGLSTLSRETLDEMLNFAVGAAALTCTKVGPDLPYRHQLG,failed
11,MFLVISVVGSSNIDIVLKVDHFTKPGETQKAIEMNVFPGGKGANQAVTVAKIGEKGCRFVTCIGNDDYSDLLIENYEKLGITGYIRVSLPTGRAFIEVDKTGQNRIIIFPGANAELKKELIDWNTLSESDILLLQNEIPFETTLECAKRFNGIVIFDPAPAQGINEEIFQYLDYLTPNEKEIEALSKDFFGEFLTVEKAAEKFLELGVKNVIVKLGDKGVLLVNKNEKKHFPTFKVKAVDTTAAGDVFNGAFAVALSEGKNPEEAVIFGTAAAAISVTRLGAQSSIPAREEVEAFLKNL,not failed
12,MFLVLCSVMIFIGFLLQIYVWPRIPKSIFKYRGLVLSISLIILIFVVRIPLEITALTLPFYLMMFFGLFLFWKDRKL,failed
13,MFLVTGVFVSVRHERTGTGTTARESVQRITWFGTLRDDGVALVMPLSDRMLPTGIIREVPEERFLEEFMPDQATYEEHFRETAESLRGRLQLASTLPTDLYPEERILLDALSALLHGRSAAKPVDADIPAVLELLAHGQEGRSAGAFQTRLSGAAVDYRRQGDYPRALLFYDRALTMQGQEDRLLFNVARVHYEMGELAEAETCLKRALESNPALEEAGRFLAFLQKTTLQPQAGDE,failed
14,MFMAENRLQLQKGSAEETIERFYNRQGIETIEGFQQMFVTKTLNTEDTDEVKILTIWESEDSFNNWLNSDVFKEAHKNVRLKSDDDGQQSPILSNKVFKYDIGYHYQK,not failed
15,MFNAYREYWNNITTMNASATRAQYWWPQLINYLVLGIYSAITGVYRYIEVTPNDGTIIKEWNTVTIIFFLLTALIWLANFTVRARRLHDRDHSNWWILFYLLPFIGTLVIFITLILPSKSHTRWPVNQSEI,failed
16,MFNKRLKQQLATLSDELNALQQFKACLESQVLNLELDGEGAIRRANQNFIQALELDGQPLAGVALESIISRHPQAVPLYREFKAALGRNESYTGQLRLQRGGGREAWLQVCVQPIRDGAGRLDHYNLICTDQS,failed
